Assay [1] addresses Elongin BC complex (Homo sapiens) (UniProt Q15370). Put plainly: ITC. The note with it: cited from earlier work.
The target of assay [2] is Elongin BC complex (human Elongin B with Elongin C residues 17-122) (human) (UniProt Q15370). Put plainly: HDX-MS.
Assay [3] deals with HIV-1 Vif (HXB2) L145A (HIV-1 (HXB2)) (UniProt P69723). Put plainly: pull-down.

Results on five substances are retold here after article PMC2949506.

Consider Vif 130-180 (from UniProt P69722), for which, in assay [1], the Kd was 1190 nM.
Take “HIV-1 Vif (HXB2) L145A (from UniProt P69723) (natural protein)”: the Kd in assay [2] is 3900 nM.
In the case of Vif 139-192 (from UniProt P69722), the Kd in assay [1] was 0.4 nM.
In the case of “Full length HIV-1 Vif (HXB2) (from UniProt P69723) (natural protein)”, in assay [2], the Kd amounted to 1900 nM and the stoichiometry N came out at 1.
The substance “Elongin BC complex (human Elongin B with Elongin C residues 17-122) (from UniProt Q15370 1-118)” yielded a fold reduction of binding versus wt Vif in assay [3] of 3 fold.
